Tests used:
[1] = biological target: pIII coat protein of bacteriophage CA2000 (OMP2) (filamentous bacteriophage (helper phage R408 derivative))
[2] = biological target: pIII coat protein of bacteriophage CA2000 (OMP1) (filamentous bacteriophage (helper phage R408 derivative))
[3] = biological target: pIII coat protein of bacteriophage CA2000 (filamentous bacteriophage (helper phage R408 derivative))
[4] = biological target: pIII coat protein of bacteriophage CA1000 (filamentous bacteriophage (helper phage R408 derivative))
[5] = biological target: pIII coat protein of bacteriophage TARGETBACK (filamentous bacteriophage (helper phage R408 derivative))
[6] = biological target: pIII coat protein of bacteriophage CA1051 (filamentous bacteriophage (helper phage R408 derivative))
[7] = biological target: pIII coat protein of bacteriophage CA2000 (filamentous bacteriophage (helper phage R408 derivative)); remark: listed apart in the source

For “OmpT protease (from UniProt P09169) (enzyme)”, the infective phage particles (ampicillin resistant transducing units) from OmpT mediated maturation of pIII [1] was 18000 ApR T.U./ml, the infective phage particles (ampicillin resistant transducing units) from OmpT mediated maturation of pIII [2] was 2500 ApR T.U./ml and the infective phage particles (ampicillin resistant transducing units) from OmpT mediated maturation of pIII [3] was less than 50 ApR T.U./ml.

“host encoded leader peptidase (from UniProt P00803) (enzyme)” showed an infective phage particles (OmR transducing units) [4] of 1e+08 OmR T.U./ml, an infective phage particles (OmR transducing units) [5] of 1000 OmR T.U./ml and an infective phage particles (OmR transducing units) [6] of 30000 OmR T.U./ml. The infective phage particles (OmR transducing units) [7] was less than 50 OmR T.U./ml.
